Experimental data from patent US6436901B1, “Pharmaceutical compositions” (UCP Gen-Pharma AG, priority 1994, dated 2002).

Experiment: RP-HPLC of hirudin in water (FIG. 1)
Format: physicochemical
Experimental: RP-HPLC method: A LiChroCART 125-4 column is used (Merck LiChrospher 100 RP-18 5 μm). Solvent A is 0.5% ammoniumacetate in acetonitrile/water (10:90), (v:v); solvent B is 0.5% ammoniumacetate in acetonitrile/water (25:75). The elution is performed at 45° C. using a flow rate of 0.5 ml/min. The binary elution is a linear gradient starting at time zero with 23% solvent B and reaching 46% solvent B after 24 minutes. After 2 min at 70% solvent B the column is equilibrated for 7 min at 23% solvent B.
A typical chromatogram of recombinant hirudin HV1 (CGP 39393) in water using the RP-HPLC (1 mg/ml hirudin) method is shown in FIG. 1.
In FIG. 1 the relative area of the main peak is 95.15%. […] The changes which occur can be accelerated by using temperature stress experiments i.e. by storage at elevated temperatures.

hirudin
relative area of the main peak (in water, 1 mg/ml hirudin, typical chromatogram FIG. 1, no storage stress): 95.15% | stability on storage in water (storage in water at room temperature): increase of by products with time
